experiment: turbidity assay; turbidity at 600 nm against protein concentration; 20 mM Tris-HCl, 150 mM NaCl pH 8.0, 20% (w/v) PEG2k; 96-well plate, quadruplicate; self-assembly into condensates; conditions: other: turbidity assay

**Q.** For “PduP encapsulation peptide with its native linker fused to the N-terminus of mNeonGreen”, which “inflection of turbidity against protein concentration” value is on record?
**A.** The value was 33.1 µM ± 0.4 µM.

**Q.** For “Three serial repeats of the PduP EP and its native linker fused to the N-terminus of mNeonGreen”, which inflection of turbidity against protein concentration is on record?
**A.** The inflection of turbidity against protein concentration was 19.7 µM.

**Q.** For “Two serial repeats of the PduP EP and its native linker fused to the N-terminus of mNeonGreen”, which inflection of turbidity against protein concentration is on record?
**A.** The inflection of turbidity against protein concentration was 15.5 µM.

Source: paper PMC12339742
